# Experimental data reported in PMC4722120, “Overexpression of a Stress-Responsive NAC Transcription Factor Gene ONAC022 Improves Drought and Salt Tolerance in Rice”.
# T1: GST-ONAC022 (Oryza sativa (rice), UniProt Q10S65 1-316)
# T1 sequence: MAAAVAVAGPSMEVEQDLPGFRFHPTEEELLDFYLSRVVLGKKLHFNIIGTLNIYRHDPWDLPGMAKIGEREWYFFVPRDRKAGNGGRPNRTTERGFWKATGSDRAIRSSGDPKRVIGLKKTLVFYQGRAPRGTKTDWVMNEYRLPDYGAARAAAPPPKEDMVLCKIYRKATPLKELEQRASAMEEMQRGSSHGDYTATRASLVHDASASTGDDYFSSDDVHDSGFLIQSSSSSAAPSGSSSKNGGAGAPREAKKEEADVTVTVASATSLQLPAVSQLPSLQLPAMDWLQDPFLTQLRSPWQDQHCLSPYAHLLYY
# B1: wNACRS (dsDNA)
# DNA 1: ATCGCATGTGGAGCACGGAGCACGTTTT
# DNA 2: AAAACGTGCTCCGTGCTCCACATGCGAT
# B2: mNACRS (dsDNA)
# DNA 1: ATCGAAAAAAGAGAAAAGAGAAAATTTT
# DNA 2: AAAATTTTCTCTTTTCTCTTTTTTCGAT
# Experiments:
# GST-ONAC022 [1] = target: T1, GST-ONAC022; assay: EMSA; self-competition by 200x unlabeled wNACRS attenuates the shift; 10 uL with 5x EMSA buffer (Beyotime chemiluminescent EMSA kit), 2 ug protein, 1 uL biotin probe; competitor preincubated 20 min; 8% native PAGE; salt, pH and temperature not stated; settings: protein: recombinant; tags: N-terminal GST (pGEX-6p-1); chain copies: 2; blunt
# GST-ONAC022 [2] = target: T1, GST-ONAC022; assay: EMSA; 10 uL with 5x EMSA buffer (Beyotime chemiluminescent EMSA kit), 2 ug protein, 1 uL biotin probe; competitor preincubated 20 min; 8% native PAGE; salt, pH and temperature not stated; settings: protein: recombinant; tags: N-terminal GST (pGEX-6p-1); chain copies: 2; blunt
Binder,binding result (GST-ONAC022 [1]),binding result (GST-ONAC022 [2])
B1,binds,
B2,,no binding
